Reference: patent publication US20240327525A1 (VIB VZW, published 2024)
Positions count from the first letter of the chain named.

B1: anti-CI-M6PR VHH1 (VHH)
VHH: QVQLQESGGGLVQPGGSLRLSCVASGFTFDRYWMNWLRQIPGKEIEWVSTINTGGTGTYYDDSVKGRFSISRDDAKNTLYLTMNSLKTEDTAVYYCARGATYYRGNSAIRGQGTQVTVSS
B2: anti-CI-M6PR VHH4 (VHH)
VHH: QVQLQESGGGLVQAGGSLRLSCAASGRTFSNYVMGWFRQAPGKEREFVGSISQGGKMTYYPDSVKGRFTISRDNAKNTMYLQMDGLKPEDTAVYYCAVSRGYPMVRVSEVDYWGQGTQVTVSS
modifications: Alexa Fluor 488 NHS ester label on amines
notes: Tag not specified
B3: anti-CI-M6PR VHH10 (VHH)
VHH: QVQLQESGGGSVQAGGSLRLSCAPAGRTFSRIRMGWFRQAPGKEREFVAAISSGGLSYYADSMKGRFTISRDNAKNTVLLQMNSLEPDDTAVYYCAAVLNDYIDDYVARNPTLYDYWGQGTQVTVSS
modifications: Alexa Fluor 488 NHS ester label on amines
notes: Tag not specified
B4: anti-CI-M6PR VHH5 (VHH)
VHH: QVQLQESGGGLVQAGGSLKLSCAAAGRTFSRLAMGWFRQAPGKEREFVAAISENGDSIHYSDSVKGRFAVSRDNAKNTVYLQMNSLKPEDTAIYYCAADRAAYYCSGSGCYPSRAPAAASYDYWGQGTQVTVSS
B5: anti-CI-M6PR VHH11 (VHH)
VHH: QVQLQESGGGLVQAGDSLKLSCTASGPTFSEITGGWFRQVPGKEREFVASISSTGITTYYTDSVKGRFTVSRDNAKNTMYLQMNSLKPEDTGVYYCAARSTSRSIAITVGYDYWGQGTQVTVSS
modifications: Alexa Fluor 488 NHS ester label on amines
notes: Tag not specified
B6: anti-CI-M6PR VHH2 (VHH)
VHH: QVQLQESGGGLVQPGGSLRLSCVFSGRTFMSYDVGWFRQAPGKERELLSSITSSSSSPYYAESVKGRFAVSRDGAKKTVYLRMNSLEPEDTAVYYCAARENWRNDWQYWGQTQVTVSS
modifications: Alexa Fluor 488 NHS ester label on amines
notes: Tag not specified
B7: anti-CI-M6PR VHH3 (VHH)
VHH: QVQLQESGGGLVQPGGSLRLSCAAFGLNFKNFDMIWFRQAPGEERDIVAAISSSSSTIWYEDSVKGRFTISRDNAKNTVYLQMNSLKPEDTAVYYCAAALTSWRRPDYWGQGTQVTVSS
modifications: Alexa Fluor 488 NHS ester label on amines
notes: Tag not specified
B8: anti-CI-M6PR VHH6 (VHH)
VHH: QVQLQESGGGLVQAGGSLRLSCAVSGSISSIGGMGWFRQAPGKQREFVAVILNNSGMTSYADSVKGRFTISRGNSKNTMYLQMNSLKPEDTAVYYCNYSGYWGQGTQVTVSS
modifications: Alexa Fluor 488 NHS ester label on amines
notes: Tag not specified
B9: anti-CI-M6PR VHH9 (VHH)
VHH: QVQLQESGGGLVQAGGSLRLSCAASGTILSIKTMGWYRQAPGKEREWVATITSSSIPMYADSVKGRFTISRDDAKNTVYLQMNSLKPEDTGVYYCNAPWTDYWGQGTQVTVSS
modifications: Alexa Fluor 488 NHS ester label on amines
notes: Tag not specified
B10: humanized variant VHH8h2 (VHH)
VHH: DVQLVESGGGLVQPGGSLRLSCAASGRTFNTYNWGWFRQAPGKEREFVAAIRWSSSKTSYADSVKGRFTISRDNSKNTVYLQMNSLRPEDTAVYYCAASIVDFTTNPSHFGSWGQGTLVTVSS
notes: Made in E. coli, IMAC purified; tag not specified
B11: humanized variant VHH8h3 (VHH)
VHH: B10 VHH with P14A
notes: as for B10
B12: humanized variant VHH8h1 (VHH)
VHH: B10 VHH with D1E
notes: as for B10
B13: humanized variant VHH7h3 (VHH)
VHH: DVQLVESGGGLVQPGGSLRLSCAASGIIFSDNRMDWYRQAPGKQREWVATLASYGWKTYADSVKGRFTISRDNTKNTVYLQMNSLRPEDTAVYYCKASSPVLNDIWGQGTLVTVSS
notes: as for B10
B14: humanized variant VHH7h1 (VHH)
VHH: B13 VHH with D1E, T74S
notes: as for B10
B15: humanized variant VHH7h2 (VHH)
VHH: B13 VHH with T74S
notes: as for B10

Legend:
[1] = target: T1, human cation-independent mannose-6-phosphate receptor on cells (human, UniProt P11717 41-2491); assay: cell-based or functional assay
[2] = target: T1, human cation-independent …; assay: live-cell imaging of the uptake of AF488-labelled VHH by MCF7 cells
Protocol: For live-cell imaging, 2×10⁴ MCF7 cells/well were seeded in OptiMEM medium and incubated the next day with Lyso Tracker Deep Red DND-99 (50 nM, Thermo Fischer, L12492) for 30 minutes at 37° C., 5% CO₂ and washed with OptiMEM after which 7.5 μM AF488 labelled anti-CI-M6PR VHHs (in OptiMEM) were incubated on the cells. For every well (i.e. anti-CI-M6PR VHH), Z-stacks were taken at three different positions every six minutes, for three hours in total. Z-slices (12) were acquired per position at a step size of 1.5 μm and XY pixel size was 275 nm by 275 nm. Excitation and emission wavelengths of the fluorescent compounds used were LTR (λEx: 633 nm and λEm: 665-715 nm), AF488 (λEx: 488 nm and λEm: 520±35 nm), Hoechst/DAPI (λEx: 405 nm and λEm: 420-470 nm).

[3] = target: T2, human CI-M6PR domain1-3His6 (human, UniProt P11717 41-467); assay: BLI, association pH 7.4, dissociation at pH 5.0, mean of local fits
T2 construct: Recombinant, made in HEK293 cells; Biotinylated with NHS-PEG4-biotin for BLI; unlabelled in SEC-MALLS and crystallisation; also called CI-M6PR hDom1-3His6; hDom1-3His6
Protocol: (§1) FIGS. 9A-9E. […] BLI was performed on an Octet Red96 (FortéBio) instrument in kinetics buffer (0.2 M Na₂HPO₄, 0.1 M Na⁺citrate, 0.01% bovine serum albumin, 0.002% Tween-20). Biotinylated human domain₁₋₃His₆ was immobilized on Streptavidin SA biosensors (Sartorius) to a signal of 0.6 nm. […] Between runs, biosensors were regenerated by three times 10 s exposure to regeneration buffer (10 mM glycine pH 3). The degree of association and dissociation was measured in δ nm over time(s).
as §1, with “10A-10E.” for “9A-9E.”, “assays,” for “runs,”

[4] = target: T2, human CI-M6PR domain1-3His6; assay: BLI, association pH 7.4, dissociation at pH 5.5, mean of local fits
Protocol: as §1
as §1, with “10A-10E.” for “9A-9E.”, “assays,” for “runs,”

[5] = target: T2, human CI-M6PR domain1-3His6; assay: BLI, association pH 7.4, dissociation at pH 6.0, mean of local fits
Protocol: as §1
as §1, with “10A-10E.” for “9A-9E.”, “assays,” for “runs,”

[6] = target: T2, human CI-M6PR domain1-3His6; assay: BLI, association pH 7.4, dissociation at pH 6.5, mean of local fits
Protocol: as §1
as §1, with “10A-10E.” for “9A-9E.”, “assays,” for “runs,”

[7] = target: T2, human CI-M6PR domain1-3His6; assay: BLI, biotinylated antigen on SA tips, global 1:1 fit, association at pH 7.4
Protocol: (§2) Biotinylated human domain₁₋₃His₆ was immobilized on Streptavidin SA biosensors (Sartorius) to a signal of 0.6 nm. […] Between runs, biosensors were regenerated by three times 10 s exposure to regeneration buffer (10 mM glycine pH 3). The degree of association and dissociation was measured in δ nm over time(s).
as §1, with “10A-10E.” for “9A-9E.”, “assays,” for “runs,”
(§3) After loading, the tips were incubated with VHHs serially diluted in pH 7.4 kinetic buffer during the association phase and dissociation was performed at pH 7.4, pH 6.5, pH 6.0, pH 5.5 and pH 5.0. All biosensor tips were then regenerated before analysis of the subsequent VHH. Table 3 summarizes the kinetic parameters retrieved after processing and curve fitting of the BLI measurements.

[8] = target: T2, human CI-M6PR domain1-3His6; assay: BLI, biotinylated antigen on SA tips, global 1:1 fit, dissociation at pH 7.4
Protocol: as §2
as §1, with “10A-10E.” for “9A-9E.”, “assays,” for “runs,”
as §3

Row | Binder | internalisation rate (live-cell imaging of AF488-VHH on MCF7 cells) [1] | binding result [2] | koff [3] | koff [4] | koff [5] | koff [6] | kon [7] | Kd [8] | koff [8]
1 | B1 | 1.38e+06 summed AF-voxels/minute | – | – | – | – | – | – | – | –
2 | B2 | – | no binding (tested: 7.5 µM) | – | – | – | – | – | – | –
3 | B3 | – | no binding (tested: 7.5 µM) | – | – | – | – | – | – | –
4 | B4 | 687000 summed AF-voxels/minute | – | – | – | – | – | – | – | –
5 | B5 | – | no binding (tested: 7.5 µM) | – | – | – | – | – | – | –
6 | B6 | – | no binding (tested: 7.5 µM) | – | – | – | – | – | – | –
7 | B7 | – | no binding (tested: 7.5 µM) | – | – | – | – | – | – | –
8 | B8 | – | no binding (tested: 7.5 µM) | – | – | – | – | – | – | –
9 | B9 | – | no binding (tested: 7.5 µM) | – | – | – | – | – | – | –
10 | B10 | – | – | 0.041 s⁻¹ | 0.0044 s⁻¹ | 0.0015 s⁻¹ | 0.0011 s⁻¹ | 220000 M⁻¹ s⁻¹ | 3.07 nM | 0.00067 s⁻¹
11 | B11 | – | – | 0.033 s⁻¹ | 0.0041 s⁻¹ | 0.002 s⁻¹ | 0.0022 s⁻¹ | 290000 M⁻¹ s⁻¹ | 1.76 nM | 0.00051 s⁻¹
12 | B12 | – | – | 0.029 s⁻¹ | 0.0043 s⁻¹ | 0.0015 s⁻¹ | 0.00053 s⁻¹ | 450000 M⁻¹ s⁻¹ | 1.06 nM | 0.00048 s⁻¹
13 | B13 | – | – | 0.019 s⁻¹ | 0.015 s⁻¹ | 0.013 s⁻¹ | 0.011 s⁻¹ | 460000 M⁻¹ s⁻¹ | 14 nM | 0.0064 s⁻¹
14 | B14 | – | – | 0.02 s⁻¹ | 0.014 s⁻¹ | 0.012 s⁻¹ | 0.0097 s⁻¹ | 500000 M⁻¹ s⁻¹ | 14.1 nM | 0.0071 s⁻¹
15 | B15 | – | – | 0.019 s⁻¹ | 0.014 s⁻¹ | 0.011 s⁻¹ | 0.0094 s⁻¹ | 470000 M⁻¹ s⁻¹ | 13.6 nM | 0.0064 s⁻¹
